Patent publication US20240082183

Experiments:
[1] = target: Serpin 3A
[2] = target: SDHA (endogenous, in mitochondria isolated from mouse IECs and in C57BL/6 primary colonic epithelial cells), Q8K2B3
[3] = target: mutated SDHA protein with His Tag (mouse; Ile-Glu-Asp-Gly changed to Ile-Glu-Ala-Gly at the putative GzmB cleavage site), Q8K2B3
Chain of mutated SDHA protein with His Tag (mouse; Ile-Glu-Asp-Gly changed to Ile-Glu-Ala-Gly at the putative GzmB cleavage site), Q8K2B3 (Q8K2B3 whole entry, looked up, change not shown): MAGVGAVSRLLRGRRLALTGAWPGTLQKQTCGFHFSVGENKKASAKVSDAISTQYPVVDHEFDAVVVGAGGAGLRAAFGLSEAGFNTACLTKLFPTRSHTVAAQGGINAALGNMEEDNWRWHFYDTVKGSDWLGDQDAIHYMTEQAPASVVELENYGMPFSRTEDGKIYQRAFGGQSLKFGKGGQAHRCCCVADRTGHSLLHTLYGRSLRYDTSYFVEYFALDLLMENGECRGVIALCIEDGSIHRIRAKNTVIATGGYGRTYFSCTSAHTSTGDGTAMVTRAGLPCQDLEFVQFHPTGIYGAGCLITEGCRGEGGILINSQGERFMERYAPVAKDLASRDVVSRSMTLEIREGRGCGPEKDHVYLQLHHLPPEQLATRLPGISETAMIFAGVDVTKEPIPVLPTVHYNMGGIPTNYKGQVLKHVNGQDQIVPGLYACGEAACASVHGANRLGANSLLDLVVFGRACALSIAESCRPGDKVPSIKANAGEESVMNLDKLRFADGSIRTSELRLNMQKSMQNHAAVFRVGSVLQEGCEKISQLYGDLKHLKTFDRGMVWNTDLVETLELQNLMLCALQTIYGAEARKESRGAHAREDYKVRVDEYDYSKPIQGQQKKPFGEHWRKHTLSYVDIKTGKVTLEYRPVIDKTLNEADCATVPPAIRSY

Chain of SDHA (endogenous, in mitochondria isolated from mouse IECs and in C57BL/6 primary colonic epithelial cells), Q8K2B3 (Q8K2B3 43-664): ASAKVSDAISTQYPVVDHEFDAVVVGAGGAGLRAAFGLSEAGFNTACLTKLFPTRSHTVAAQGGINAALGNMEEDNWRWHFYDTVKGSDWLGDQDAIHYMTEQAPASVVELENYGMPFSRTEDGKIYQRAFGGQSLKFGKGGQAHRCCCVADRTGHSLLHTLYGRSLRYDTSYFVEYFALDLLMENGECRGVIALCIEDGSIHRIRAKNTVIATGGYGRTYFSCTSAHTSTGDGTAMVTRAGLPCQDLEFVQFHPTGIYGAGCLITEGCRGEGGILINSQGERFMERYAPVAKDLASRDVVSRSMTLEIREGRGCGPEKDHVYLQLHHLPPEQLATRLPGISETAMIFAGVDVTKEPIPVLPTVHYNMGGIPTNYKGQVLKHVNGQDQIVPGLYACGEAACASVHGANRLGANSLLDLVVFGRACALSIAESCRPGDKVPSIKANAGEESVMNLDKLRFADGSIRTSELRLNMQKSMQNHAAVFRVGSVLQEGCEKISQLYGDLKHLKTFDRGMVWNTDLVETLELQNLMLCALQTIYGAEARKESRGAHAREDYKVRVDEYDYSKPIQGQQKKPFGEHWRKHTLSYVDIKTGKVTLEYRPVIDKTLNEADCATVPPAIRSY

B1: recombinant mouse Granzyme B (protein)
chain: IIGGHEVKPHSRPYMALLSIKDQQPEAICGGFLIREDFVLTAAHCEGSIINVTLGAHNIKEQEKTQQVIPMVKCIPHPDYNPKTFSNDIMLLKLKSKAKRTRAVRPLNLPRRNVNVKPGDVCYVAGWGRMAPMGKYSNTLQEVELTVQKDRECESYFKNRYNKTNQICAGDPKTKRASFRGDSGGPLVCKKVAAGIVSYGYKDGSPPRAFTKVSSFLSWIKKTMKSS
proteolysis of SDHA by GzmB in PCECs treated with perforin, Granzyme B and Serpin 3A for 6 hours (immunoblot of SDHA) [1]: The presence of Serpin 3A prevented the proteolysis of SDHA by GzmB | proteolysis of SDHA in isolated IEC mitochondria (immunoblot of full length and cleaved SDHA) [2]: Treatment with GzmB caused proteolysis of SDHA with a reduction in SDHA with an increase in SDHA cleaved fragments | proteolysis of mutated SDHA protein (anti-His immunoblot, 6 hours) [3]: the mutation of the cleavage site prevented proteolysis of SDHA by GzmB
